According to patent publication US20260008852A1 (CRYSTAL BIOSCIENCE, published 2026):
Where a chain is given by its changes, count along the chain named.

T1: B7-H3 on B7-H3-expressing CHO cells (Genescript) (UniProt Q5ZPR3 29-534, limits assumed)
T1 construct: whole, on cells; also called CHO-K1/B7-H3; MFI B7-H3
T1 sequence (looked up): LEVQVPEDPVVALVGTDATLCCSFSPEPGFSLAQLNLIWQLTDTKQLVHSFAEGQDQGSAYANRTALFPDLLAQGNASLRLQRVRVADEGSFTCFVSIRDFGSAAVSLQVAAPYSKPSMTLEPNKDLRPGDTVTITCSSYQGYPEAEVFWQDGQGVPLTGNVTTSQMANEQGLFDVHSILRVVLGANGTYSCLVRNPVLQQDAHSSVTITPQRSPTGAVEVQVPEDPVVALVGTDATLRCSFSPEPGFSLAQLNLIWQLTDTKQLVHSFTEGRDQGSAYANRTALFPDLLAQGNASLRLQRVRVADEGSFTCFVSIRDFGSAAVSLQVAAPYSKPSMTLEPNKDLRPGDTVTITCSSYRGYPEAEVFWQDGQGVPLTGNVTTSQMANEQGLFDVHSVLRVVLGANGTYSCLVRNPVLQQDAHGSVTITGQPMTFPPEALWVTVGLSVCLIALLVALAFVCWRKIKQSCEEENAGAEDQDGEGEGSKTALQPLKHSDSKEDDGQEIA

T2: His-tagged human B7-H3 (human, UniProt Q5ZPR3-2 29-245, limits assumed)
T2 construct: Bought His-tagged protein coated on the ELISA plate; also called hu B7-H3; CD276
T2 sequence (looked up): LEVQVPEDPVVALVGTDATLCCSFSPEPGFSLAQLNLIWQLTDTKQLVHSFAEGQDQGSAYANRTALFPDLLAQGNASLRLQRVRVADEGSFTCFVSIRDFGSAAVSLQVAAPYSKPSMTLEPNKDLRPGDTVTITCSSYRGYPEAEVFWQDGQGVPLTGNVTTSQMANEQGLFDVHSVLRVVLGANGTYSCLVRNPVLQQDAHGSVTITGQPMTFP

T3: His-tagged mouse B7-H3 (mouse, UniProt Q8VE98 29-244, limits assumed)
T3 construct: Bought His-tagged protein coated on the ELISA plate; also called mu B7-H3; murine B7-H3
T3 sequence (looked up): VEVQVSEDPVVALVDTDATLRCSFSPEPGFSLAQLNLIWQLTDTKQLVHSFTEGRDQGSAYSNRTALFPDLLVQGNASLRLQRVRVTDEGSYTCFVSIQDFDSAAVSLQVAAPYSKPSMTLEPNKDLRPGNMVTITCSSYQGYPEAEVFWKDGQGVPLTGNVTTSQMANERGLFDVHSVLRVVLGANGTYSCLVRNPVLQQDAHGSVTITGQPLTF

T4: His-tagged cynomolgus monkey B7-H3 (cynomolgus monkey)
T4 chain: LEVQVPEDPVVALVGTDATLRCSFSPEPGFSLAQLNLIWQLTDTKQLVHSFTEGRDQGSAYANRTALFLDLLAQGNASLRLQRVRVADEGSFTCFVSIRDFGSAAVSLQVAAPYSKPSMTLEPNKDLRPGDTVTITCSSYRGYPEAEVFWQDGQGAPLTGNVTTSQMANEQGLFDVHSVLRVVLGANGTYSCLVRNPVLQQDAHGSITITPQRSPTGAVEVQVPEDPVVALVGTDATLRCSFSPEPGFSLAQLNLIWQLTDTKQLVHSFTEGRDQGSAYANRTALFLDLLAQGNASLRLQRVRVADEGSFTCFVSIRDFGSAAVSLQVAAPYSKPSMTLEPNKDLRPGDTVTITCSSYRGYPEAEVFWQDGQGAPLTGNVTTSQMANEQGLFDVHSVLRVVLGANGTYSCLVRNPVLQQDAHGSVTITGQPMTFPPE

B1: 40633p1.1.E3 (scFv, V domains shown)
VH: EVQLLESGGGLVQPGGSLRLSCAASGFTVSYYGMSWVRQAPGKGLEWVSAIKQDGSEKYYADSVKGRFTISRDNSKNTLYLQMNSLRAEDTAVYYCARHWNDYSNAMNVWGQGTTVTVSS
VL: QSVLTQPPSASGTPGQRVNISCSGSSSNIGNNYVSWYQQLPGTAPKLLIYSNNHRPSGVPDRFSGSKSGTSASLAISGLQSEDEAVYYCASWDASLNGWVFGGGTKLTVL
notes: Tested as scFv-Fc (Expi293 supernatant)
B2: 40633p1.1.G5 (scFv, V domains shown)
VH: B1 VH with T28I, S30N, A40P, N77T, A106G
VL: QSVLTQPPSASGTPGQRVTISCSGSWSNIGSYNSHWYQKLPGTAPKLLIYTTDRRPSGVPDRFSGSKSGTSASLAISGLQSEDEADYYCGTWDDSLNVWVFGGGTKLTVL
notes: as for B1
B3: 40633p1.1.H11 (scFv, V domains shown)
VH: EVQLLESGGGLVQPGGSLRLSCAASGFTFSSYPMTWVRQAPGKGLEWVADINSGGGTTLYADAVKGRFTISRDNSKNIVYLQMNSLRGEDTAVYYCAKHLDYYSYGMDVWGQGTTVTVSS
VL: QSVLTQPPSASGTPGQRVTISCSGVTSKIGSKYVHWYQQLPGTAPKLLIYRNFERPSGVPDRFSGSTSGTSASLAISGLQSEDEADYYCATWEGALNGWVFGGGTKLTVL
notes: as for B1
B4: 40633p1.1.G7 (scFv, V domains shown)
VH: EVQLLESGGGLVQPGGSLRLSCAASGFTFSGSAMNWVRQAPGKGLEWVSAINSGGTTIYYADSVKGRFTVSRDNSKNTLYLQMNSLRAEDTAVYYCVKLDFYYGMDVWGEGTTVTVSS
VL: QSVVTQPPSASGTPGQRVTVSCSGSSSNVGSKYVQWYQQLPGTAPKLLIYATDRRPSGVPDRFSGSKSGTSASLAISGLQSEDEADYYCASWDDSLNAWVFGGGTKLTVL
notes: as for B1
B5: 40633p1.1.D11 (scFv, V domains shown)
VH: EVQLLESGGGLVQPGGSLRLSCAASGFTFRSYAMSWVRQAPGKGLEWVAYIGSSGGTTYYADSVKGRFTISRDNSKNTLYLQMNSLRAEDTAVYYCVKESYYYMDVWGQGTTVTVSS
VL: QSVLTQPPSASGTPGQRVTISCSATISNIDINRVSWYQQLPGTAPKLLIFNSQRPSGVPDRFSGSKSGTSASLAISGLQSEDEADYYCATWDDSLNSWVFGGGTKLTVL
notes: as for B1
B6: 40633p1.1.F2 (scFv, V domains shown)
VH: EVQLLESGGGLVQPGGSLRLSCVASGLTFNGFAMTWVRQAPGKGLEWVSGISWNSGSIYYADSVKGRFTISRDNSKNTVYLQMSSLRAEDTAIYYCAKNWNDYYNSMDVWGQGTTVTVSS
VL: QSVLTQPPSASGTPGQRVTISCSGSRSNIGTKYVYWYQQFPGTAPKLLIYTTDRRPSGVPDRFSGSKSGTSASLAISGLQSEDEADYYCSAWDDRLNAWVFGGGTKLTVL
notes: as for B1
B7: 40633p1.1.G10 (scFv, V domains shown)
VH: EVQLLESGGGLVEPGGSLRLSCAASGFSFSSYGMHWVRQAPGKGLDWVAVINGEGSGTYYADSVKGRFTISRDNSKSTLYLQMNSLRAEDTAVYYCTKYYYNYAMDVWGQGTTVTVSS
VL: QSVLTQPPSASGTPGQRVTISCSGSRTDIGTTSVNWYQQLPGTAPKLLIYQSHQRPSGVPDRFSGSKSGTSASLAISGLQSEDEADYYCASWDASQNTWVFGGGTKLTVL
notes: as for B1
B8: 40511p1.1.D6 (scFv, V domains shown)
VH: DVQLVESGGGVVRPGESLTLSCAASGFTINSYAVSWVRQAPGEGLEWVSGISGSGVRYYADSVKGRFTISRDNSNNTLYLQMNSLRAEDTAVYYCARSNKVTWNNFFDYWGLGTLVTVSS
VL: EVVLTQSPGTLTLSPGERATLSCRASRSILTSLAWYQQKPGQAPRLLIYNTVTRATGIPARFSGSGSGTEFTLTINSLQSEDFAVYYCQQYYDWPPLTFGGGTKVEIK
notes: as for B1
B9: 40511p1.1.G3 (scFv, V domains shown)
VH: B8 VH with N73D
VL: B8 VL
notes: as for B1
B10: 40633p1.1.E6 (scFv, V domains shown)
VH: EVQLLESGGGLVQPGGSLRLSCAASGLTFSSYAMNWVRQAPGKGLEWVAGIGGSGSSTYHTDSVKGRFTISRDNSKNTLYLQMSSLRAEDAAVYYCAKEDHWSGGMDVWGQGTTVTVSS
VL: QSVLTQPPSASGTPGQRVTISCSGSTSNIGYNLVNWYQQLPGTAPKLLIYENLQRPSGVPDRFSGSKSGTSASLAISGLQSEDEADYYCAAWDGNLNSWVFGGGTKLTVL
notes: as for B1
B11: 40633p1.1.G3 (scFv, V domains shown)
VH: B10 VH with S84N
VL: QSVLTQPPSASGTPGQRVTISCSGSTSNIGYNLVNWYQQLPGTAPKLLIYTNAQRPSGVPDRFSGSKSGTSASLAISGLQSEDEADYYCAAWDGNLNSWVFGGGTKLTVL
notes: as for B1
B12: 40633p1.2.D7 (scFv, V domains shown)
VH: EVQLLESGGSLVQPGGSLRLSCAASGFTFSSYWMSWVRQAPGKGLEWVSGISSSGSATYYADSVKGRFTISRDNSKNTLYLQMNSLRAEDTAVYYCARWNDYDIMDVWGQGTTVTVSS
VL: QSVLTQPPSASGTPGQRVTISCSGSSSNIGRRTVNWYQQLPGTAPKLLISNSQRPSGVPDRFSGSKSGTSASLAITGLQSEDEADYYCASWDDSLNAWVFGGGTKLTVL
notes: as for B1

What follows are binders tested against T1, B7-H3 on B7-H3-expressing CHO cells … (assay: flow cytometry, B7-H3-expressing CHO cells, 10 ug/ml).
Method in brief: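 Antibodies at 10 μg/ml in PBS/1% BSA/0.01% NaN3 incubated 60 min on ice with ~1.5e5 cells; parental CHO cells as counterscreen. After washing, read by flow cytometry; values are mean fluorescent intensities (MFI).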

Row | Binder | MFI @ 10 ug/ml [MFI]
1 | B1 | 44000
2 | B2 | 41000
3 | B3 | 81300
4 | B4 | 78300
5 | B5 | 78600
6 | B6 | 66800
7 | B7 | 60100
8 | B8 | 84200
9 | B9 | 89100
10 | B10 | 43500
11 | B11 | 69900
12 | B12 | 75100

What follows are binders tested against T2, His-tagged human B7-H3 (assay: ELISA OD450 on hu B7-H3 over OD450 on mu B7-H3).
Procedure: The variable regions of heavy and light chains were cloned and assembled into a single chain Fv-Fc (ScFv-Fc) mammalian expression vector. Sanger sequencing was performed by GeneWiz and sequences were evaluated using DNASTAR Lasergene 15. Unique scFv-Fes were transiently expressed in Expi293 cells (Life Technologies, #A14527) grown in Expi293 Expression Medium (Life Technologies, #A1435101) after transfection using the ExpiFectamine transfection reagent and supplements (Life Technologies, #A14524). Cells were incubated for 3-5 days with shaking at 37° C. in a 5% CO2 humidified incubator.

Row | Binder | hu:mu ratio
13 | B1 | 3.01
14 | B2 | 3.09
15 | B3 | 1.1
16 | B4 | 1.15
17 | B5 | 1.18
18 | B6 | 1.47
19 | B7 | 1.32
20 | B8 | 1.19
21 | B9 | 1.24
22 | B10 | 2.44
23 | B11 | 1.28
24 | B12 | 1.45

What follows are binders tested against T2, His-tagged human B7-H3 (assay: ELISA, coated His-tagged antigen, scFv-Fc 1 ug/ml).

Row | Binder | ELISA OD450 @ 1 ug/ml [OD450]
25 | B1 | 0.554
26 | B2 | 0.794
27 | B3 | 2.07
28 | B4 | 2.16
29 | B5 | 1.72
30 | B6 | 1.76
31 | B7 | 2.2
32 | B8 | 1.92
33 | B9 | 2.13
34 | B10 | 1.39
35 | B11 | 2.14
36 | B12 | 2.19

What follows are binders tested against T3, His-tagged mouse B7-H3 (assay: ELISA, coated His-tagged antigen, scFv-Fc 1 ug/ml).

Row | Binder | ELISA OD450 @ 1 ug/ml [OD450]
37 | B1 | 0.184
38 | B2 | 0.257
39 | B3 | 1.88
40 | B4 | 1.87
41 | B5 | 1.45
42 | B6 | 1.2
43 | B7 | 1.67
44 | B8 | 1.61
45 | B9 | 1.71
46 | B10 | 0.572
47 | B11 | 1.68
48 | B12 | 1.51

Target: T4, His-tagged cynomolgus monkey B7-H3
Assay: ELISA, coated His-tagged antigen, scFv-Fc 1 ug/ml

Row | Binder | ELISA OD450 @ 1 ug/ml [OD450]
49 | B1 | 1.63
50 | B2 | 1.49
51 | B3 | 1.92
52 | B4 | 1.95
53 | B5 | 1.91
54 | B6 | 1.77
55 | B7 | 1.81
56 | B8 | 2.11
57 | B9 | 1.97
58 | B10 | 1.53
59 | B11 | 1.89
60 | B12 | 1.92
